Results from PMC3617563.

Molecular target: C276A USP2 catalytic core (inactive active-site mutant) (human) (UniProt O75604)
Test: stopped-flow fluorescence

Sequence of C276A USP2 catalytic core (inactive active-site mutant) (human) (O75604 259-605 C276A): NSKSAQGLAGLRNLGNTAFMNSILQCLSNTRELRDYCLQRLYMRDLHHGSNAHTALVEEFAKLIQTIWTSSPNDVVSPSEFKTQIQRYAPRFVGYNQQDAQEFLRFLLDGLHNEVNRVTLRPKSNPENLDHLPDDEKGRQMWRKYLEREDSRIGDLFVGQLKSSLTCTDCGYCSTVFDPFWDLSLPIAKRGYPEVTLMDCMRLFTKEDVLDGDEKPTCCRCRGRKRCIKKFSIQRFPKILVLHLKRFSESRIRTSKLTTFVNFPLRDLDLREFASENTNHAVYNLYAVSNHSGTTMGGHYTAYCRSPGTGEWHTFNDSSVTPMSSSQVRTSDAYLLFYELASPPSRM

**Q.** For “native K48-linked diubiquitin (from UniProt P0CG48 1-76)”, which k1 (first step, association) is on record?
**A.** 230000 M⁻¹ s⁻¹

**Q.** What about the k−1 (first step, dissociation) of the same substance?
**A.** 0.06 s⁻¹
